{
  "source": "patent US20250333486A1",
  "about": "“Anti-HSP90 alpha antibody and uses thereof” (NATIONAL HEALTH RESEARCH INSTITUTES, priority 2021, published 2025)",
  "key": {"[1]": {"assay": "Dynamic Light Scattering assay", "assay_type": "physicochemical"}, "[2]": {"assay": "Pharmacokinetic assay in male mice", "conditions": "IV single dose 10 mg/kg", "quoted_text": "Food and water were available ad libitum at all times. For determination of the serum exposure levels of HH01 antibody, blood samples were collected at Day-0.04, 0.08, 0.25, 1, 2, 3, 7, 9, 14, 16, 18, 21, 23, 25, 35, 42, 49, 56, and 63 post administration."}, "[3]": {"system": "K-Ras^G12D-induced PDAC in LSL-KrasG12D/Pdx1-Cre mice", "assay": "Therapeutic efficacy in K-Ras^G12D-induced desmoplastic mouse PDAC model", "assay_type": "in vivo", "description": "(§1) Mouse experiments were performed with the permission of the Institutional Animal Care and Use Committee of National Health Research Institutes (NHRI-IACUC-106031-A, 109022-M2-S02, and 109196-A). To establish a desmoplastic tumor transplant model, C57BL/6 mice at 12 weeks of age were subcutaneously inoculated with a mix of Panc 02 cells and EndoMT-derived CAFs (i.e. OPN-treated 3B-11 cells). See Fan C S, Chen L L, Hsu T A, et al. Endothelial-mesenchymal transition harnesses HSP90α-secreting M2-macrophages to exacerbate pancreatic ductal adenocarcinoma. J Hematol Oncol 2019;12:138; and Chua K V, Fan C S, Chen L L, Chen C C, Hsieh S C, Huang T S. Octyl gallate induces pancreatic ductal adenocarcinoma cell apoptosis and suppresses endothelial-mesenchymal transition-promoted M2-macrophages, HSP90α secretion, and tumor growth. Cells 2020;9(1):91. Sizes of developing tumors were superficially measured with a Vernier caliper, and tumor volumes were calculated with the formula ½×length×width^2. Real tumors were weighed when mice were sacrificed. To establish a desmoplastic tumor transplant model in humanized mice, NOD-SCID IL2R^null (ASID) mice transplanted with human hematopoietic stem cells (hHSC) were subcutaneously inoculated with a mix of PANC-1 cells and OPN-treated HUVECs. The employed hHSC-transplanted ASID mice were produced from the National Laboratory Animal Center (Taipei, Taiwan) and all contained human CD45^+ cell levels more than 38% of total lymphocytes. To establish an M2-macrophage-exacerbated mouse PDAC model, C57BL/6 mice were subcutaneously inoculated with a mix of Panc 02 cells and rHSP90α-treated BMDMs. Additionally, LSL-KrasG12D/Pdx1-Cre transgenic mice were adopted as a spontaneously PDAC-developing mouse model to evaluate the therapeutic efficacy of HH01 antibody. LSL-KrasG12D and Pdx1-Cre breeder mice were obtained from the Mouse Models of Human Cancers Consortium Repository of the National Cancer Institute (Frederick, Maryland, USA). LSL-KrasG12D mice were crossed with Pdx1-Cre mice to generate LSL-KrasG12D/Pdx1-Cre mice.\nFor assaying the HSP90α-binding activities of the prepared antibodies, 96-well plates were coated with 12.5 ng/ml of rHSP90α in the capture buffer (BioLegend, San Diego, CA, USA) by overnight incubation at 4° C. The coated plates were washed twice with PBST and then blocked with PBST plus 3% bovine serum albumin (BSA). The prepared antibodies were applied and incubated 2 h at room temperature. After three washes with PBST, horseradish peroxidase-conjugated secondary antibody was added and incubated at 37° C. for another 1 h. After three washes, 0.3 mg/ml of 3,3′,5,5′-tetramethylbenzidine in 0.015% H2O2 was added into each well and incubated in the dark at room temperature for 10 min. The reactions were stopped by the addition of 0.5 M H2SO4, and OD450 values were measured by an Infinite M200 microplate reader (TECAN, Männedorf, Switzerland). Additionally, the immunoglobulin (IgG) isotype characterization of anti-HSP90α antibodies was performed by using the Mouse Ig Isotyping ELISA Ready-Set-Go!™ Kit (eBioscience™, Thermo Fisher Scientific, Waltham, MA, USA). The ELISA protocol was also used to assay the secreted HSP90α levels of mouse serum samples as described previously. See Chen J S, Hsu Y M, Chen C C, Chen L L, Lee C C, Huang T S. Secreted heat shock protein 90α induces colorectal cancer cell invasion through CD91/LRP-1 and NF-κB-mediated integrin αV expression. J Biol Chem 2010;285(33):25458-66.\nMouse paraffin-embedded tissue sections were deparaffinized by xylene and rehydrated by a series of ethanol dilutions. Masson trichrome staining was performed using a Trichrome Stain Kit (ScyTek Laboratories Inc., Utah, USA) according to the manufacturer's protocol. The stained sections were dehydrated in graded ethanol solutions and xylene, and finally mounted with mounting solution overnight in the dark at room temperature. […]"}, "Solubility of antibody": {"assay": "Solubility of antibody", "assay_type": "physicochemical"}, "[4]": {"system": "Panc 02 plus EndoMT cell grafts", "assay": "Therapeutic efficacy in desmoplastic mouse PDAC transplant model", "assay_type": "in vivo", "conditions": "5 mg/kg IV, 3 times at 7-day intervals from Day-20", "description": "as §1\n(§2) For assaying the HSP90α-binding activities of the prepared antibodies, 96-well plates were coated with 12.5 ng/ml of rHSP90α in the capture buffer (BioLegend, San Diego, CA, USA) by overnight incubation at 4° C. The coated plates were washed twice with PBST and then blocked with PBST plus 3% bovine serum albumin (BSA). […] The reactions were stopped by the addition of 0.5 M H2SO4, and OD450 values were measured by an Infinite M200 microplate reader (TECAN, Männedorf, Switzerland). Additionally, the immunoglobulin (IgG) isotype characterization of anti-HSP90α antibodies was performed by using the Mouse Ig Isotyping ELISA Ready-Set-Go!™ Kit (eBioscience™, Thermo Fisher Scientific, Waltham, MA, USA). […]"}, "[5]": {"system": "Panc 02 plus EndoMT cell grafts", "assay": "Prophylactic efficacy in desmoplastic mouse PDAC transplant model", "assay_type": "in vivo", "conditions": "5 mg/kg IV, 8 doses at 3-day intervals from Day-4", "description": "as §1, §2"}, "PANC-1 cells": {"system": "PANC-1 cells", "assay": "Cell spheroid-forming assay, rHSP90α-induced PANC-1 spheroids", "assay_type": "cell-based, human", "conditions": "15 μg/ml rHSP90α plus 10 μg/ml antibody", "description": "One thousand cancer cells were seeded onto each well of 24-well plates pre-coated with a 4-mm thick layer of 0.5% agarose. After incubation 24 h with serum-free medium at 37° C. plus a 5% CO2 humidified atmosphere, cells were added with PBS or 15 μg/ml of rHSP90α in the absence or presence of 10 μg/ml of control IgG or the tested anti-HSP90α antibody. The incubation was kept for 10-14 days with supplements of some fresh serum-free medium every 3 days. Finally, the cell spheroids characterized by tight, non-adherent, and >100 μm in diameter were photographed and counted under an Olympus IX 71 inverted microscope (Center Valley, PA, USA). The spheroid formation % was calculated by the formula: (number of cell spheroids/1000)×100%."}},
  "note": "Entries after “also recorded” stand apart in the source; their conditions may differ.",
  "data": [
    {"molecule": "HH01: humanized anti-HSP90α IgG1 antibody, mutant of Clone-2-chimera; VH SEQ ID NO: 12, VL SEQ ID NO: 17 (antibody, V domains shown, Heavy chain variable region; Light chain variable region) VH: EVQLVESGGGLVQPGGSLRLSCAASGFTFKTYAMNWVRQAPGQGLEWVARIRSKSRNYATYYADSVKDRFTISRDDSKNQFYLQMNNLRTEDTAVYYCVVGGSGFDYWGQGTTLTVSS VL: DVVMTQTPLSLPVSLGDQASISCRSSQSIVHSNGNTYLEWYLQKPGQSPQLLIYKVSNRFSGVPDRFSGSGSGTDFTLTISSVEAEDLGVYYCFQGSHVPWTFGGGTKLEIK", "values": [
      {"measurement": "aggregate formation", "setting": "[1]", "result": "did not easily form aggregate; also recorded: not easy to form aggregate"},
      {"measurement": "size of average diameter", "setting": "[1]; Dynamic Light Scattering", "result": 19.33, "unit": "nm"},
      {"measurement": "size range", "setting": "[1]; Dynamic Light Scattering", "result": "10-50 nm"},
      {"measurement": "clearance rate", "setting": "[2]", "result": 4.3, "unit": "mL/day/kg"},
      {"measurement": "volume in steady state", "setting": "[2]", "result": 80, "unit": "mL/kg"},
      {"measurement": "mice still surviving on Day-450", "setting": "[3]; 5 mg/kg IV, 10-dose schedule from 6 months of age", "result": "7 of 9"},
      {"measurement": "median survival time", "setting": "[3]; 5 mg/kg IV, 10-dose schedule, Kaplan-Meier, end point Day-450", "result": "> 450", "unit": "days"},
      {"measurement": "liver desmoplasia", "setting": "[3]; Masson trichrome staining", "result": "significant improvement"},
      {"measurement": "elevation of serum HSP90α levels", "setting": "[3]; after vs. before treatments", "result": "effectively abolished"},
      {"measurement": "pancreatic desmoplasia", "setting": "[3]; mice still surviving on Day-450", "result": "drastically recovered"},
      {"measurement": "tumor nodules on livers", "setting": "[3]; one mouse per group", "result": "fewer nodules than IgG-treated mouse"},
      {"measurement": "water solubility", "setting": "Solubility of antibody", "result": "quite water-soluble"},
      {"measurement": "solubility in PBS", "setting": "Solubility of antibody; PBS", "result": "> 10", "unit": "mg/mL"},
      {"measurement": "serum HSP90α levels", "setting": "[4]", "result": "significant decreases"},
      {"measurement": "tumor desmoplasia", "setting": "[4]", "result": "significant decreases"},
      {"measurement": "tumor growth by weight on Day-41", "setting": "[4]", "result": "indeed repressed"},
      {"measurement": "tumor growth kinetics", "setting": "[4]", "result": "totally suppressed"},
      {"measurement": "kinetics of the tumor growth", "setting": "[5]", "result": "potently suppressed"},
      {"measurement": "serum HSP90α levels", "setting": "[5]", "result": "significantly reduced"},
      {"measurement": "tumor desmoplasia (Masson trichrome)", "setting": "[5]", "result": "significantly prevented"},
      {"measurement": "tumor sizes (weights) on Day-30", "setting": "[5]", "result": "significantly repressed"},
      {"measurement": "suppression of rHSP90α-induced spheroid formation of PANC-1 cells", "setting": "PANC-1 cells", "result": "most outstanding efficacy"}
    ]}
  ]
}
